Consider one molecule from patent US20240368275A1 (ELPIS BIOPHARMACEUTICALS, published 2024).

The assay has as its target T1, CD3 on Jurkat cells (UniProt P07766 23-207, limits assumed).
T1 construct: whole, on cells; the whole CD3/TCR complex stands on the cells; also called Jurkat CD3
Description: flow cytometry on Jurkat cells. The procedure: Jurkat cells were plated at 100,000 cells/well in a 96-well plate with 50 μL of full media. Anti-Nectin4/CD3 antibodies were 3-fold serial titrated from 20 nM. 50 μL was added to the cells and incubated for 1 hours at room temperature with shaking. Samples were washed one time with flow buffer. […] Samples were washed once with flow buffer. Samples were stained with 100 uL Zombie Fixable Viability Dyes at 1:800 dilution per well and incubated in dark at room temperature for 30 mins. Samples were spun down at 1300 rpm for 5 minutes and washed once with 200 uL flow buffer. Reconstituted samples in 200 uL of flow buffer and read on Attune NxT cytometer. EC50 values for CD3 binding were calculated using Prism 8.1 software.
Similar methods of above mentioned were used to measure the binding activities of anti-Nectin4/CD3/IL-2 complexes to CHO/Nectin4 and Jurkat cells, respectively.

T1 sequence (P07766 23-207 limits assumed): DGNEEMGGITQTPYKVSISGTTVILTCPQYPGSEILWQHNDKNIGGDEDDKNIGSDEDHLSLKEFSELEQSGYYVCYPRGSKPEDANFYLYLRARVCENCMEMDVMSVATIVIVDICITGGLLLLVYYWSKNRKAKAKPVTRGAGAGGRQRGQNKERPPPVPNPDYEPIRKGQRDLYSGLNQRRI

B1: EP697/EP378/EP289 anti-Nectin4/CD3 bispecific antibody (bispecific antibody)
heavy 1: EVQLVQSGAEVKKPGASVKVSCKASGYTFTGYYMHWVRQAPGQGLEWMGRINPNSGGTNYAQKFQGRVTMTRDTSISTAYMELSGLRSDDTAVYFCARVTYNIGWYIDYWGQGTLVTVSSASTKGPSVFPLAPSSKSTSGGTAALGCLVKDYFPEPVTVSWNSGALTSGVHTFPAVLQSSGLYSLSSVVTVPSSSLGTQTYICNVNHKPSNTKVDKKVEPKSCDGGGGSGGGGSEVQLVESGGGLVQPGGSLRLSCAASGFTFNTYAMNWVRQAPGKGLEWVARIRSKANAYATYYAASVKGRFTISRDDSKNSLFLQMNSLKTEDTAVYYCVRHGNFGNSAVSWFAYWGQGTLVTVSSGGGGSGGGGSGGGGSGGGGSQAVVTQEPSLTVSPGGTVTLTCASSTGAVTTSNYANWVQEKPDHLFTGLIGGTNKRAPGVPARFSGSLLGGKAALTLSGVQPEDEAEYYCALWYSNLWVFGGGTKLTVLEPKSCDKTHTCPPCPAPEAAGGPSVFLFPPKPKDTLMISRTPEVTCVVVDVSHEDPEVKFNWYVDGVEVHNAKTKPREEQYNSTYRVVSVLTVLHQDWLNGKEYKCKVSNKALGAPIEKTISKAKGQPREPQVCTLPPSRDELTKNQVSLSCAVKGFYPSDIAVEWESNGQPENNYKTTPPVLDSDGSFKLVSKLTVDKSRWQQGNVFSCSVMHEALHNHYTQKSLSLSPGK
heavy 2: not shown
light: QAVVTQPPSVSVAPGKTATITCGGNNIGSKGVHWYQQKPGQAPVLVIYYDTDRPSGIPERLSGSNSGNTATLTISRVEAGDEADYYCQVWDSSSDHPVFGGGTKLTVLGQPKANPTVTLFPPSSEELQANKATLVCLISDFYPGAVTVAWKADGSPVKAGVETTKPSKQSNNKYAASSYLSLTPEQWKSHRSYSCQVTHEGSTVEKTVAPTECS
notes: EP697: two residue mutations within HCDR2 and a single point mutation within HCDR3 of the anti-CD3 scFv of EP500; also called EP697/378/289
In the case of B1, the binding result is recorded as “no binding”.
